The data set addresses T1, OFA/iLRP extracellular epitope peptide (UniProt P08865).
T1 chain: NQIQAAFREPR
The experiment in a line: flow cytometry of coated beads; PBS (pH not stated), 200 uL, 30 min, room temperature; 2x10^5 coated beads with 20-40 pmol FAM-ssDNA (cells: 40-60 pmol); washed once or twice with PBS. The settings on record: label: FAM (5' in selection primer); single strand, 59 nt. A general note: Flow cytometry measures light scatter and fluorescence of single cells or particles in a stream.

As usually defined, the Kd is the equilibrium constant for the complex coming apart. High values mean lower affinity, low ones higher affinity.

B1: AB3 (ssDNA)
DNA: TGCGTGTGTAGTGTGTCTGTTGTTTGTATTGTTGTCTATCCTCTTAGGGATTTGGGCGG
As for B1, the equilibrium dissociation constant (Kd) came to 101 nM.

The values are drawn from article PMC6517398, “Selection of a novel DNA aptamer against OFA/iLRP for targeted delivery of doxorubicin to AML cells”.
